Broadly, the stoichiometry N is a count of units in the complex or per binding partner.

Our source for the stoichiometry N values is article doi:10.1101/2022.08.26.505362.

Assay [1] addresses fibrillin (molecule within bovine ciliary zonule microfibrils) (bovine (endogenous in ciliary zonule)) (UniProt P98133). Kind of assay: cryo-EM structure. The conditions noted are these: scale: fibrillin monomers per microfibril repeat.
For assay [2], the target named is fibrillin microfibrils purified from bovine ciliary zonules (bovine (endogenous in ciliary zonule)) (UniProt P98133). Put plainly: STEM mass mapping. The conditions noted are these: scale: molecules of LTBP-1 per microfibril repeat.
Sequence of fibrillin microfibrils purified from bovine ciliary zonules (bovine (endogenous in ciliary zonule)) (P98133 25-2871): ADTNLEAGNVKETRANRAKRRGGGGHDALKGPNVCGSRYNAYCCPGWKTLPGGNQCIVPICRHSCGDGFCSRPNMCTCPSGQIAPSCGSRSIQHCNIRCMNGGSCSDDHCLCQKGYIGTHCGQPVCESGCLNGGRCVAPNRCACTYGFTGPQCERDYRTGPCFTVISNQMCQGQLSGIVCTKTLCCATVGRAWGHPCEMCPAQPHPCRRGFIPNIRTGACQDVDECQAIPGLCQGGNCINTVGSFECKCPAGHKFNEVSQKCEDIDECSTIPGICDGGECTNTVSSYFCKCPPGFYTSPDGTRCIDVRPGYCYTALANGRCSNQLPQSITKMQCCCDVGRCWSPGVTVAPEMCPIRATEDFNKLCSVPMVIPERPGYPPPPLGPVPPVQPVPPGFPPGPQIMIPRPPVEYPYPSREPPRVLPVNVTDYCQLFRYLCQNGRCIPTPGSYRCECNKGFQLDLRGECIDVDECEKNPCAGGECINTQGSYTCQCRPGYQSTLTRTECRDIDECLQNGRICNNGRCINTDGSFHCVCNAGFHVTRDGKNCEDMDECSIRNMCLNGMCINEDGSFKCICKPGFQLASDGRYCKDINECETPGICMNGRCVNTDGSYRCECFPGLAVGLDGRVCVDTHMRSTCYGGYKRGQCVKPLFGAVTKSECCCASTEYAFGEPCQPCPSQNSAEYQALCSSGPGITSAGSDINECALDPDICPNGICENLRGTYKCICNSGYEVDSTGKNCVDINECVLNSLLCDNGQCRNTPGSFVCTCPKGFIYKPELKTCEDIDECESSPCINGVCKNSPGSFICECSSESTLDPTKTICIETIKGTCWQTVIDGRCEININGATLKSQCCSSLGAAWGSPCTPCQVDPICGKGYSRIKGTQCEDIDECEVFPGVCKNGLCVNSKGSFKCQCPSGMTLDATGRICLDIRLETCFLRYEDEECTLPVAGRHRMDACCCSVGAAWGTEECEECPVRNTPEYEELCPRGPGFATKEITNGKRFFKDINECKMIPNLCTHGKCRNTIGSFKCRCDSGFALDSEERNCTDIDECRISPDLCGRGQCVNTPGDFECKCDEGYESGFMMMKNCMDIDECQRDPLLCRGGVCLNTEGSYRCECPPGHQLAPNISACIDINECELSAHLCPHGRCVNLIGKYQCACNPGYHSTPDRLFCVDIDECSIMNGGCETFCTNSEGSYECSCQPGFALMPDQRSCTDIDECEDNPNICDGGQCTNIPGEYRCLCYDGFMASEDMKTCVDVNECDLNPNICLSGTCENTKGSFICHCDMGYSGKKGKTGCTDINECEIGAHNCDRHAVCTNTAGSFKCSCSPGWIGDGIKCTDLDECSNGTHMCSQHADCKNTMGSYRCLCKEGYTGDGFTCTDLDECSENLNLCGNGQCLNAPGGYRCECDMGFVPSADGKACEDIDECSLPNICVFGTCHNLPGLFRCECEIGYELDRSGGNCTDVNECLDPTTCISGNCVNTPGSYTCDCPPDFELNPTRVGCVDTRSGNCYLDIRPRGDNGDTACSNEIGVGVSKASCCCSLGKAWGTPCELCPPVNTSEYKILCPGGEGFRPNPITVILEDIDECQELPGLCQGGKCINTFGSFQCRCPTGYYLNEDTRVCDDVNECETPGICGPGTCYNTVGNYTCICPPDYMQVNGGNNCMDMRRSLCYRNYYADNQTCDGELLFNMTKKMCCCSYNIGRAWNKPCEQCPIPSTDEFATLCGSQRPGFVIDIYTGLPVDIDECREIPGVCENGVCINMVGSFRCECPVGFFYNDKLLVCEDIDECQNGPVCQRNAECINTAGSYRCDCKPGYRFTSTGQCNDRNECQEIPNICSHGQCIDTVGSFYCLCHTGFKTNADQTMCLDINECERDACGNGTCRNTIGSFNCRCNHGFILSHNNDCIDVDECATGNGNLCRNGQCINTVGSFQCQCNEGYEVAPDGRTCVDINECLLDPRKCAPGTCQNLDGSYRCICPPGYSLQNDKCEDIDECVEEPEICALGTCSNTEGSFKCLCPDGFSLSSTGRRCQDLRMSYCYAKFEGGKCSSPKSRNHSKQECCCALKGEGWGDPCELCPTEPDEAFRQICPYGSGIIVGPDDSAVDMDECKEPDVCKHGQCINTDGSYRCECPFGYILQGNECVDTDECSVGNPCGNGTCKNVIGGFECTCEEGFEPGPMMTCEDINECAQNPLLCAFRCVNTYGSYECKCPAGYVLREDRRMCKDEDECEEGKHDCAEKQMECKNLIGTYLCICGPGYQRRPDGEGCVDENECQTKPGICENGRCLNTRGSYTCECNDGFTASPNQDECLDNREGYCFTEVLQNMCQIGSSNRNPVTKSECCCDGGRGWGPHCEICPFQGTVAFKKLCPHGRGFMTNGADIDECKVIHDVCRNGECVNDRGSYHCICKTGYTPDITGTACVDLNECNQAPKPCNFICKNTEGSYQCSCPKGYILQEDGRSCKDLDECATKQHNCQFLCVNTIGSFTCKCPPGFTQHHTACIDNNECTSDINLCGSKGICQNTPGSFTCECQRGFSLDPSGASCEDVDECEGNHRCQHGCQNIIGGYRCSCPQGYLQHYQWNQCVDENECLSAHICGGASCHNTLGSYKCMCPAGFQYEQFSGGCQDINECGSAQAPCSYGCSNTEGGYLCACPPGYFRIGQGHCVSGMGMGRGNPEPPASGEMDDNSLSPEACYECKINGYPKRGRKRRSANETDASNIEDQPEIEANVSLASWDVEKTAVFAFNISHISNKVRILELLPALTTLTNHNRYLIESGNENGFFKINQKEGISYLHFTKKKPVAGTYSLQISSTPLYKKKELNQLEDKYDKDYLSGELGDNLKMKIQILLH

Sequence of fibrillin (molecule within bovine ciliary zonule microfibrils) (P98133 25-2871): as above

In the case of “fibrillin (molecule within bovine ciliary zonule microfibrils) (from UniProt P98133 25-2871) (natural protein)”, the stoichiometry N in assay [1] is 8.
In assay [2], “full-length LTBP-1 (latent TGFβ-binding protein-1) (from UniProt Q14766 24-1721) (natural protein)” came in with a stoichiometry N of 2.
